Test results reported in paper PMC4245933.

How the values were obtained:
[1] = molecular target: T1, GST-KDM4D348-523 (human, UniProt Q6B0I6 348-523); experiment: EMSA
T1 sequence: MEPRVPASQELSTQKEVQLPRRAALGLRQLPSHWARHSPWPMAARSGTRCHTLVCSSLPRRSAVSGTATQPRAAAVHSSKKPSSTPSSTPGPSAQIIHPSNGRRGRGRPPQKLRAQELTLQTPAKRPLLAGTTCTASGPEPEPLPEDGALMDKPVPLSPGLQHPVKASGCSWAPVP

[2] = molecular target: T2, His-KDM4D-FL (human, UniProt Q6B0I6 1-523); experiment: EMSA
T2 sequence: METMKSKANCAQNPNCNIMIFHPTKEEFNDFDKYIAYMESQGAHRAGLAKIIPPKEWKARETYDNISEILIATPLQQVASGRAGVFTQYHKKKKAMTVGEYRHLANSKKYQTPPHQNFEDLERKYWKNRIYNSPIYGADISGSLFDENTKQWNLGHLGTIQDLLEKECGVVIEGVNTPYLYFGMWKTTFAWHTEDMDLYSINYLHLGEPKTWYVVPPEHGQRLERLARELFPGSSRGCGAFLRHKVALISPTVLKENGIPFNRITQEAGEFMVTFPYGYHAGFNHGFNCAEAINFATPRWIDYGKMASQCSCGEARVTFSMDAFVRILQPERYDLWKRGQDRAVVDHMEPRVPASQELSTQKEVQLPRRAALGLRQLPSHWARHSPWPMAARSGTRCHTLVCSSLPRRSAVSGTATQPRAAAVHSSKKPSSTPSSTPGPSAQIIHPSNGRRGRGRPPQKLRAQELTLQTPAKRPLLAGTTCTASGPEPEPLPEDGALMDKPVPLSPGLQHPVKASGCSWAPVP

[3] = molecular target: T3, His-KDM4D1-350 (human, UniProt Q6B0I6 1-350); experiment: EMSA
T3 sequence: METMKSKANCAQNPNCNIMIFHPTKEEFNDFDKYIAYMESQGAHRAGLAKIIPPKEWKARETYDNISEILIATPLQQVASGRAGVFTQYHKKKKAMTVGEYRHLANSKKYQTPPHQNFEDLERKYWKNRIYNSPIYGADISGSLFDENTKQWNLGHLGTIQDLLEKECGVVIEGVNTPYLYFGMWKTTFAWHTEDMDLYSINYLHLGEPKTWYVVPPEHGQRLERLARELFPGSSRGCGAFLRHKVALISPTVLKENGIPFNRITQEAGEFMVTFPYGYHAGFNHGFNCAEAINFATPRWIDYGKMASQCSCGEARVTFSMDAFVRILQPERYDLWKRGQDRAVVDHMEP

[4] = molecular target: T4, His-KDM4D-N202M (human, UniProt Q6B0I6 1-523, N202M); experiment: EMSA
T4 sequence: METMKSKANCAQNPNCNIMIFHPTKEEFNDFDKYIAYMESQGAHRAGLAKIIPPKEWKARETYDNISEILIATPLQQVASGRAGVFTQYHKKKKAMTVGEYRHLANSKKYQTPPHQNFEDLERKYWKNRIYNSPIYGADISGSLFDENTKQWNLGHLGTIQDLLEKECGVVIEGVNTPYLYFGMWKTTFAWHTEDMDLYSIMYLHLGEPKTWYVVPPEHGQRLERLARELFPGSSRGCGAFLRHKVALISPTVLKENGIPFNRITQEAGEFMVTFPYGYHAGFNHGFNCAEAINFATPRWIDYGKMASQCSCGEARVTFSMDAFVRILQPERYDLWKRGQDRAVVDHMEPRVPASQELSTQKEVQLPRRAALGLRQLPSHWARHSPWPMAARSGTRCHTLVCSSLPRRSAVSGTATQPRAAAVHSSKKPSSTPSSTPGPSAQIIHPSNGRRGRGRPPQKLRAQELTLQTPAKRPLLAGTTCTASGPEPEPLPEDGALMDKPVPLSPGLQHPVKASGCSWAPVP

[5] = molecular target: T5, His-KDM4D-FL-1H4R-HRK (human, UniProt Q6B0I6 1-523, H115A;R123A;K127A;H219A;R222A;R225A;R228A;R236A); experiment: EMSA
T5 sequence: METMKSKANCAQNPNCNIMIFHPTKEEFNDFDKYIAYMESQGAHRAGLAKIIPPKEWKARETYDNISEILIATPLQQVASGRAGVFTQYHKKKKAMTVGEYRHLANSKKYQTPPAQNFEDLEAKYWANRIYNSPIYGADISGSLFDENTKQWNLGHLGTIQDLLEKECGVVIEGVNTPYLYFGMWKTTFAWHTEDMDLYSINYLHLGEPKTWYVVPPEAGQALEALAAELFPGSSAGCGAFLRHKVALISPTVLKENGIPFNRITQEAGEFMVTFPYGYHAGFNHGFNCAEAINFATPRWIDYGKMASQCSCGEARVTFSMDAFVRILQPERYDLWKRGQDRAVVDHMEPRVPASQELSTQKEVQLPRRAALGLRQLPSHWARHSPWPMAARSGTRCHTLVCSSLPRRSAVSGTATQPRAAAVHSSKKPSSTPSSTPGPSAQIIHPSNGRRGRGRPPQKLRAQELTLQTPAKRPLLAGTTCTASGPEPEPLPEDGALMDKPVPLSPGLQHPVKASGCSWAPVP

[6] = molecular target: T2, His-KDM4D-FL; experiment: fluorescence anisotropy
[7] = molecular target: T3, His-KDM4D1-350; experiment: fluorescence anisotropy
[8] = molecular target: T6, His-KDM4D1-350-1H4R-HRK (human, UniProt Q6B0I6 1-350, H115A;R123A;K127A;H219A;R222A;R225A;R228A;R236A); experiment: fluorescence anisotropy
T6 sequence: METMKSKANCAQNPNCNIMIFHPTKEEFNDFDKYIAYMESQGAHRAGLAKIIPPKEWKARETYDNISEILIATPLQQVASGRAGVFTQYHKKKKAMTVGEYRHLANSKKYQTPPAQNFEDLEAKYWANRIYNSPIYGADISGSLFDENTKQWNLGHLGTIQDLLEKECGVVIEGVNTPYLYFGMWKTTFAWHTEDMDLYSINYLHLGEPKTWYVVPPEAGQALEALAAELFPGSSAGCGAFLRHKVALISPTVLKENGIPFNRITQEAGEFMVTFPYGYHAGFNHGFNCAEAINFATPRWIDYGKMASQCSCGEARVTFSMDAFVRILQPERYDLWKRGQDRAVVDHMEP

B1: 100nt RNA (ssRNA)
RNA: GGGCGAAUUGGGCCCGACGUCGCAUGCUCCCGGCCGCCAUGGCGGCCGCGGGAAUUCGAUUAGUUCCCCUAAUAAUCGGUGCCCCCGAUAUGGCGUUUA
Kd [1]: > 100 nM | Kd [2]: ~20 nM | Kd [3]: ~80 nM | Kd [4]: ~15 nM | Kd [5]: > 100 nM

B2: 22nt RNA (RNAF-22) (ssRNA)
RNA: UUAACACAAAAUACGCACCCCA
Kd [6]: ~126 nM | Kd [7]: ~1220 nM | binding result [8]: no binding

B3: 37nt RNA (ssRNA)
RNA: GGGCGAAUUGGGCCCGACGUCGCAUGCUCCCGGCCGC
Kd [2]: < 50 nM
